Assays:
[1] = target: E. coli FtsZ, purified (GTP-polymerized in the assays) (E. coli) (UniProt P0A9A6); assay: co-sedimentation; co-sedimentation with GTP-polymerized FtsZ carried out similarly to Fig 2 panel A; data fitted with Hill model y = x^n/(Kd+x^n)
[2] = target: the molecule itself; assay: 90° angle light scattering; FtsZ (12 μM) alone or with MBP-ABDOM (12 μM) or MBP in 50 mM PIPES pH 6.0, 1 mM EDTA, 5 mM MgCl2, 30 °C; polymerization induced by 1 mM GTP

Row | Molecule | Kd [1] | binding result [2]
1 | MBP-ABDOM (ABDOM of MscS with N-terminally fused maltose binding protein) (from UniProt P0C0S1 175-265) (domain or fragment) | 5.3 µM | 
2 | MBP-ABDOM-K258A/R259A (from UniProt P0C0S1 175-265) (domain or fragment) | 14.6 µM | 
3 | E. coli FtsZ, purified (GTP-polymerized in the assays) (natural protein, UniProt P0A9A6 1-383, looked up, cell division protein FtsZ, E. coli, from pET11-ftsZ (gift of H. P. Erickson); also called polymerized FtsZ; assembled FtsZ; source: E. coli BL21(DE3) carrying pET11-FtsZ, purified by GTP-induced precipitation (four times)) MFEPMELTNDAVIKVIGVGGGGGNAVEHMVRERIEGVEFFAVNTDAQALRKTAVGQTIQIGSGITKGLGAGANPEVGRNAADEDRDALRAALEGADMVFIAAGMGGGTGTGAAPVVAEVAKDLGILTVAVVTKPFNFEGKKRMAFAEQGITELSKHVDSLITIPNDKLLKVLGRGISLLDAFGAANDVLKGAVQGIAELITRPGLMNVDFADVRTVMSEMGYAMMGSGVASGEDRAEEAAEMAISSPLLEDIDLSGARGVLVNITAGFDLRLDEFETVGNTIRAFASDNATVVIGTSLDPDMNDELRVTVVATGIGMDKRPEITLVTNKQVQQPVMDRYQQHGMAPLTQEQKPVAKVVNDNAPQTAKEPDYLDIPAFLRKQAD |  | binds

From publication PMC4440785, “Cytoplasmic Domain of MscS Interacts with Cell Division Protein FtsZ: A Possible Non-Channel Function of the Mechanosensitive Channel in Escherichia Coli” (PLoS ONE, 2015)
